We go through five proteins from publication doi:10.1101/2021.01.21.427698 (bioRxiv, 2021).

Changes are numbered by the printed parent chain.

To fix the notation:
B1: SEPT2-msfGFP human septin octamers containing SEPT9_i1 (complex)
chain 1: MSKQQPTQFINPETPGYVGFANLPNQVHRKSVKKGFEFTLMVVGESGLGKSTLINSLFLTDLYPERVIPGAAEKIERTVQIEASTVEIEERGVKLRLTVVDTPGYGDAINCRDCFKTIISYIDEQFERYLHDESGLNRRHIIDNRVHCCFYFISPFGHGLKPLDVAFMKAIHNKVNIVPVIAKADTLTLKERERLKKRILDEIEEHNIKIYHLPDAESDEDEDFKEQTRLLKASIPFSVVGSNQLIEAKGKKVRGRLYPWGVVEVENPEHNDFLKLRTMLITHMQDLQEVTQDLHYENFRSERLKRGGRKVENEDMNKDQILLEKEAELRRMQEMIARMQAQMQMQMQGGDGDGGALGHHV
chain 2: MAATDIARQVGEGCRTVPLAGHVGFDSLPDQLVNKSVSQGFCFNILCVGETGLGKSTLMDTLFNTKFEGEPATHTQPGVQLQSNTYDLQESNVRLKLTIVSTVGFGDQINKEDSYKPIVEFIDAQFEAYLQEELKIRRVLHTYHDSRIHVCLYFIAPTGHSLKSLDLVTMKKLDSKVNIIPIIAKADAISKSELTKFKIKITSELVSNGVQIYQFPTDDESVAEINGTMNAHLPFAVIGSTEELKIGNKMMRARQYPWGTVQVENEAHCDFVKLREMLIRVNMEDLREQTHTRHYELYRRCKLEEMGFKDTDPDSKPFSLQETYEAKRNEFLGELQKKEEEMRQMFVQRVKEKEAELKEAEKELHEKFDRLKKLHQDEKKKLEDKKKSLDDEVNAFKQRKTAAELLQSQGSQAGGSQTLKRDKEKKN
chain 3: MSVSARSAAAEERSVNSSTMVAQQKNLEGYVGFANLPNQVYRKSVKRGFEFTLMVVGESGLGKSTLINSLFLTDLYSPEYPGPSHRIKKTVQVEQSKVLIKEGGVQLLLTIVDTPGFGDAVDNSNCWQPVIDYIDSKFEDYLNAESRVNRRQMPDNRVQCCLYFIAPSGHGLKPLDIEFMKRLHEKVNIIPLIAKADTLTPEECQQFKKQIMKEIQEHKIKIYEFPETDDEEENKLVKKIKDRLPLAVVGSNTIIEVNGKRVRGRQYPWGVAEVENGEHCDFTILRNMLIRTHMQDLKDVTNNVHYENYRSRKLAAVTYNGVDNNKNKGQLTKSPLAQMEEERREHVAKMKKMEMEMEQVFEMKVKEKVQKLKDSEAELQRRHEQMKKNLEAQHKELEEKRRQFEDEKANWEAQQRILEQQNSSRTLEKNKKKGKIF
chain 4: MKKSYSGGTRTSSGRLRRLGDSSGPALKRSFEVEEVETPNSTPPRRVQTPLLRATVASSTQKFQDLGVKNSEPSARHVDSLSQRSPKASLRRVELSGPKAAEPVSRRTELSIDISSKQVENAGAIGPSRFGLKRAEVLGHKTPEPAPRRTEITIVKPQESAHRRMEPPASKVPEVPTAPATDAAPKRVEIQMPKPAEAPTAPSPAQTLENSEPAPVSQLQSRLEPKPQPPVAEATPRSQEATEAAPSCVGDMADTPRDAGLKQAPASRNEKAPVDFGYVGIDSILEQMRRKAMKQGFEFNIMVVGQSGLGKSTLINTLFKSKISRKSVQPTSEERIPKTIEIKSITHDIEEKGVRMKLTVIDTPGFGDHINNENCWQPIMKFINDQYEKYLQEEVNINRKKRIPDTRVHCCLYFIPATGHSLRPLDIEFMKRLSKVVNIVPVIAKADTLTLEERVHFKQRITADLLSNGIDVYPQKEFDEDSEDRLVNEKFREMIPFAVVGSDHEYQVNGKRILGRKTKWGTIEVENTTHCEFAYLRDLLIRTHMQNIKDITSSIHFEAYRVKRLNEGSSAMANGVEEKEPEAPEM
B2: SEPT2-msfGFP human septin hexamers (complex)
chain 1: B1 chain 1
chain 2: B1 chain 2
chain 3: B1 chain 3
B3: SEPT2-msfGFP human septin octamers containing SEPT9_i3 (complex)
chain 1: B1 chain 1
chain 2: B1 chain 2
chain 3: B1 chain 3
chain 4: MERDRISALKRSFEVEEVETPNSTPPRRVQTPLLRATVASSTQKFQDLGVKNSEPSARHVDSLSQRSPKASLRRVELSGPKAAEPVSRRTELSIDISSKQVENAGAIGPSRFGLKRAEVLGHKTPEPAPRRTEITIVKPQESAHRRMEPPASKVPEVPTAPATDAAPKRVEIQMPKPAEAPTAPSPAQTLENSEPAPVSQLQSRLEPKPQPPVAEATPRSQEATEAAPSCVGDMADTPRDAGLKQAPASRNEKAPVDFGYVGIDSILEQMRRKAMKQGFEFNIMVVGQSGLGKSTLINTLFKSKISRKSVQPTSEERIPKTIEIKSITHDIEEKGVRMKLTVIDTPGFGDHINNENCWQPIMKFINDQYEKYLQEEVNINRKKRIPDTRVHCCLYFIPATGHSLRPLDIEFMKRLSKVVNIVPVIAKADTLTLEERVHFKQRITADLLSNGIDVYPQKEFDEDSEDRLVNEKFREMIPFAVVGSDHEYQVNGKRILGRKTKWGTIEVENTTHCEFAYLRDLLIRTHMQNIKDITSSIHFEAYRVKRLNEGSSAMANGVEEKEPEAPEM
B4: recombinant Drosophila septin hexamers (DSep1-msfGFP, DSep2, Peanut) (complex)
chain 1: MADTKGFSSIETPGYVGFANLPNQVHRKSVKKGFEFTLMVVGESGLGKSTLVNSLFLTDLYPERIIPDAIEKQKQTVKLEASTVEIEERGVKLRLTVVDTPGFGDAIDNSNSFGAILEYIDEQYERFLRDESGLNRRNIVDNRIHCCFYFISPFGHGLKPLDVEFMKKLHSKVNIVPVIAKADCLTKKEILRLKCRIMQEIESHGIKIYPLPDCDSDEDEDYKEQVKQLKEAVPFAVCGANTLLEVKGKKVRGRLYPWGVVEVENPDHCDFIKLRTMLITHMQDLQEVTQEVHYENYRSDRLAKGIKGKENGVKAERDSSSQVVSNSVLGEKDRILQEKEAELRRMQEMLAQMQARMQAQQ
chain 2: MSVEVDFVDKKEVHLRTLKQSGHVGFDSLPDQLVNKSVQNGFVFNVMCIGETGLGKSTLMDTLFNTSFESTPSPHTLPSVKLKAHTYELQESNVRLKLTICDTVGYGDQINKDDSFKAVVDYIDAQFENYLQEELKIKRSLVTCHDSRIHICLYFICPTGHGLKSLDLVCMKKLDSKVNIIPVIAKADTISKVELQRFKAKIIQELNANGVHIYQFPTDDETVAETNTSMNSHIPFAVVGSTEFIKVGNKLIRARQYPWGTVQVENETHCDFVKLREMLIRTNMEDMREKTHTRHYELYRQKRLEQMGFSDVDSDNKPISFQQTFEAKRSNHLAELQSKEEEVRQMFVQRVKEKEAELKESEKDLHAKFEKLKRDHAEEKRKLEESRKALEEDYLDFQRRKQQLATAHHTLTLGKSKKK
chain 3: MNSPRSNAVNGGSGGAISALPSTLAQLALRDKQQAASASASSATNGSSGSESLVGVGGRPPNQPPSVPVAASGKLDTSGGGASNGDSNKLTHDLQEKEHQQAQKPQKPPLPVRQKPMEIAGYVGFANLPNQVYRKAVKRGFEFTLMVVGASGLGKSTLINSMFLSDIYNAEQYPGPSLRKKKTVAVEATKVMLKENGVNLTLTVVDTPGFGDAVDNSNCWVPILEYVDSKYEEYLTAESRVYRKTISDSRVHCCLYFIAPSGHGLLPLDIACMQSLSDKVNLVPVIAKADTMTPDEVHLFKKQILNEIAQHKIKIYDFPATLEDAAEEAKTTQNLRSRVPFAVVGANTIIEQDGKKVRGRRYPWGLVEVENLTHCDFIALRNMVIRTHLQDLKDVTNNVHYENYRCRKLSELGLVDGKARLSNKNPLTQMEEEKREHEQKMKKMEAEMEQVFDMKVKEKMQKLRDSELELARRHEERKKALELQIRELEEKRREFEREKKEWEDVNHVTLEELKRRSLGANSSTDNVDGKKEKKKKGLF
B5: recombinant mammalian SEPT2-, SEPT6-, SEPT7-containing hexamers (mouse SEPT2, human SEPT6, human SEPT7ΔN19) (complex)
chain 1: B1 chain 1 with V67I, N207S, G352S, G354S, H359Q
chain 2: B1 chain 2
chain 3: MVAQQKNLEGYVGFANLPNQVYRKSVKRGFEFTLMVVGESGLGKSTLINSLFLTDLYSPEYPGPSHRIKKTVQVEQSKVLIKEGGVQLLLTIVDTPGFGDAVDNSNCWQPVIDYIDSKFEDYLNAESRVNRRQMPDNRVQCCLYFIAPSGHGLKPLDIEFMKRLHEKVNIIPLIAKADTLTPEECQQFKKQIMKEIQEHKIKIYEFPETDDEEENKLVKKIKDRLPLAVVGSNTIIEVNGKRVRGRQYPWGVAEVENGEHCDFTILRNMLIRTHMQDLKDVTNNVHYENYRSRKLAAVTYNGVDNNKNKGQLTKSPLAQMEEERREHVAKMKKMEMEMEQVFEMKVKEKVQKLKDSEAELQRRHEQMKKNLEAQHKELEEKRRQFEDEKANWEAQQRILEQQNSSRTLEKNKKKGKIF

The first data set deals with the molecule itself. The data set is described as follows: spinning disk fluorescence microscopy of septin polymerisation.
Take B1: the binding result is recorded as “binds”.
As for B2, the binding result is “binds”.
On the same count and under the same terms, then B3, with “binds”; and B4, with “binds”.

Another data set concerns the molecule itself. The experiment in a line: negative-stain electron microscopy of septin polymerisation.
Consider B1, for which the binding result is on record as “binds”.
On to B2, for which the binding result is “binds”.
Still for that read-out and setting: then B5, with “binds”.
